From paper PMC3926522

What was measured:
thrombin [1] = target: T1, thrombin (human, UniProt P00734;P00734 315-363;364-622); assay: whispering gallery mode microsphere resonator
thrombin [2] = target: T1, thrombin; assay: whispering gallery mode microsphere resonator; remark: listed apart in the source

TATGAATTCAATCCGTCGAGCAGAGTT (ssDNA, 5' amino) [non-thrombin (non-aptamer) oligonucleotide]
binding result (thrombin [1]): no binding

CCAACCCAACGGTTGGTGTGGTTGG (structured_DNA, 5' amino) [anti-thrombin aptamer oligonucleotide]
Kd (thrombin [2]): ~1000 nM
